Assay results from patent publication US20030171255.
Like-named read-outs stand apart in the source and are kept apart here.

Experiments:
[1] = system: recombinant DARPP-32
[2] = system: recombinant DARPP-32 phosphorylated in vitro at Ser137 by CK1
[3] = molecular target: T1, recombinant DARPP-32 phosphorylated in vitro at Ser137 by CK1; remark: listed apart in the source
T1 sequence (Q9UD71 1-204, species assumed, looked up): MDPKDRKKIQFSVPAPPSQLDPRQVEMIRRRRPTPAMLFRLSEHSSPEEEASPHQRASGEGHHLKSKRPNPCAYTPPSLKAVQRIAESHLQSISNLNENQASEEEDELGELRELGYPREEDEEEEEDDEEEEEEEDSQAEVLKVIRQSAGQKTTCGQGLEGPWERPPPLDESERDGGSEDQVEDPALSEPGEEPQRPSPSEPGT

CK1 (casein kinase 1) obtained from New England BioLabs
stoichiometry of in vitro phosphorylation at Ser137 [1]: stoichiometry of 1 mol/mol

recombinant His-tagged PP2Cd (protein phosphatase 2C delta isoform) cloned from rat striatum
dephosphorylation of phospho-Ser137-DARPP-32 (release of 32P) [2]: PP2Cd did not dephosphorylate phospho-Ser137-DARPP-32

recombinant His-tagged PP2Cb (protein phosphatase 2C beta isoform) cloned from rat striatum
KM [2]: 25.3 µM
Vmax, µmol mg^-1 min^-1 (µmol mg^-1 min^-1) [2]: 0.99
dephosphorylation of phospho-Ser137-DARPP-32 (release of 32P) [2]: the PP2Ca, b and g demonstrated similar initial rates of dephosphorylation
kcat [2]: 0.78 s⁻¹
kcat/KM [2]: 31000 M⁻¹ s⁻¹

B1: recombinant His-tagged PP2Cg (protein phosphatase 2C gamma isoform) cloned from rat striatum (protein)
chain: MGAYLSQPNTVKCSGDGVGAPRLPLPYGFSAMQGWRVSMEDAHNCIPELDNETAMFSVYDGHGGEEVALYCAKYLPDIIKDQKAYKEGKLQKALQDAFLAIDAKLTTDEVIKELAQIAGRPTEDEDDKEKVADEDDVDNEEAALLHEEATMTIEELLTRYGQNCQKGPPHTKSGTGIGDEPEPQGLNGEAGPEDPSRETPSQENGPTAKGHTGPSSNSDHGTEAGQIGEPGTATGEAGPSCSSASDKLPRVAKSKFFEDSEDESDEVEEEEDDSEECSEDEDGYSSEEAENEEDEDDTEEAEEDDDEEMMVPGMEGKEEPGSDSGTTAVVALIRGKQLIVANAGDSRCVVSEAGKALDMSYDHKPEDEVELARIKNAGGKVTMDGRVNGGLNLSRAIGDHFYKRNKNLPPQEQMISALPDIKVLTLTDDHEFMVIACDGIWNVMSSQEVVDFIQSKISQRDENGELRLLSSIVEELLDQCLAPDTSGDGTGCDNMTCIIICFKPRNTVELQPESGKRKLEEALSTEGAEENGNSDKKKAKRD
KM [3]: 7 µM
Vmax, µmol mg^-1 min^-1 (µmol mg^-1 min^-1) [3]: 0.31
dephosphorylation of phospho-Ser137-DARPP-32 (release of 32P) [3]: the PP2Ca, b and g demonstrated similar initial rates of dephosphorylation
kcat [3]: 0.32 s⁻¹
kcat/KM [3]: 45000 M⁻¹ s⁻¹

B2: recombinant His-tagged PP2Ca (protein phosphatase 2C alpha isoform) cloned from rat striatum (protein)
chain: MGAFLDKPKMEKHNAQGQGNGLRYGLSSMQGWRVEMEDAHTAVIGLPSGLETWSFFAVYDGHAGSQVAKYCCEHLLDHITNNQDFKGSAGAPSVENVKNGIRTGFLEIDEHMRVMSEKKHGADRSGSTAVGVLISPQHTYFINCGDSRGLLCRNRKVHFFTQDHKPSNPLEKERIQNAGGSVMIQRVNGSLAVSRALGDFDYKCVHGKGPTEQLVSPEPEVHDIERSEEDDQFIILACDGIWDVMGNEELCDFVRSRLEVTDDLEKVCNEVVDTCLYKGSRDNMSVILICFPNAPKVSAEAVKKEAELDKYLENRVEEIIKKQGEGVPDLVHVMRTLASENIPSLPPGGELASKRNVIEAVYNRLNPYKNDDTDSASTDDMW
KM [3]: 13.1 µM
Vmax, µmol mg^-1 min^-1 (µmol mg^-1 min^-1) [3]: 0.39
dephosphorylation of phospho-Ser137-DARPP-32 (release of 32P) [3]: the PP2Ca, b and g demonstrated similar initial rates of dephosphorylation
kcat [3]: 0.31 s⁻¹
kcat/KM [3]: 23000 M⁻¹ s⁻¹
